# The domain aggregation screens of Martell et al. (2025)
# Assay: soluble fraction after stress (log2 fold change); higher = more stays soluble; pooled small domains, quantitative proteomics
# Conditions: stress: 50 degC
# Procedure, shortened: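 Custom libraries of small protein domains were pooled and measured in a high-throughput format, with quantitative proteomics as the read-out. Each library was stressed at 50°C. The value is the log2 fold change in the amount of each protein that stays soluble after stress, used as a measure of aggregation propensity; higher values mean more of the protein stays soluble.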
row,Sequence,soluble fraction (log2)
1,HMHTGLTNYEYKQIKSSLLKILTQSESMRLGELVDKVDQFESEKVTTVIRFLVGNEELMLFDDTLTLKKQL,0.0246
2,HMRKGDDRLRAQVDEYISKQGNNTFNYKQVAHAINATSPISQRAVALYLAELAFDGDLLETAPGRYKSPSR,0.0382
3,HMTLFDESGYTARELEIIREVANGLSNKEIADKLFLSEGTVKNYITGILAKENLSHRTALAVYYLTGRK,0.0583
4,HMDDDDPDQEIAQYYEKLRAMNPDEETKQKLSDEINKLSKMMYSSQEAMVSRNYLDTVFSLPWHQF,-0.0959
5,HMERVIYLLNGREVPAAEIRAAEPEALTVDRFYSSENLPAEYRDRNPELVVAFTAEEPLRHY,0.358
6,HMLDLYYDSEDKLLIDMGTGEVIRSFADDKRSLVFDAQAKILFDEDSGDIVYSSYFDKLITDKLASKS,-0.0393
7,HMVTEIDYGAFIKMTEEGNIGEVKIEDNQIVFTDKENKAIYKTGIMPDSDLTQRLYDSGAVFA,0.0785
8,HMTEPLTKREKEVLLLLPRGLTAKAMASELFLTEATIKSHLAAIFRKFKVVNRTQAIAIAVESKILT,-2.33
9,HMNKFADLAGNIIYNENGVEVFNFGKYKGQPVAEVFKKDIGYYGWIQNADFPRYTKKVFTAIQLKSK,-1.22
10,HMKIPQFAVIKQYLEQQIKTAQWAPGRQIPTEQSLADTFSVSRMTARRAVQQLADAGLLERTQGSGTFVAD,-0.145
11,HMNPESRRSELIDAATKLFFSRGYTATSIRDILDAVDDRTASPSVFYYYFESKEAIYQAVLQRYTD,-2.03
12,HMVDLDIENYELEDILNLFRLQYNFVEADLKRAYRMALKLHPDKSGLDGEYFRFYMKAYKIVENIFNFRNR,-1.78
13,HMDLLIFSPSLGQHVRDLKRVIDRLHQHGIPVRWQKAKLLREEIEYIGWTWKSGGLIDPTNV,-0.31
14,HMNDPIGDMLTRIRNAQMRGKSTVSTPASKLRAWVLEVLASEGYIRGFERATTDNGQGELVISLD,-0.665
15,HMEQISVPIFTNDELVTFARSYSGELGYKIDDMAVLALYNRISNIQRLDQATTLTEVKDIVDEAVAKSE,-0.0661
16,HMSSKRDQFIVLGQEILEKMFKNEGLEFSEKGLLAVMPNFEAESINDIYAKVGEGLISGWDVMKAVYPAY,-0.133
17,HMKMTFGENLHKLRKIYRLSQEDVASAINLKRSDIAAVEKGDRVLNDEELDKLADFIGIDIVDLL,-0.193
18,HMALKRVAPQGEDKLSAQLDGVEFDKLIPWLGMLEHDHRIAIVNLSIDRANATGLVNARVIL,-0.0239
19,HMSTVELPVQINGKVRGRITVPANAGQEDVKQAALADSKVQRYIEGASIRKVIVVPRKLVNIVV,0.13
20,HMEVDWLEVEKVIVSSSYSWMENSPKVKLLQEYIGVTADGIYGLGTWGAHRTHAVDLGFINLSYPIP,-0.127
21,HMTPLILTAQEGGERLDAFVASQVEDLTRSAAQRLLEQGAVTSGGKPLKKNAKTTPGMVVEVLLPDPQ,0.251
22,HMRKLDQRLAGLLLGKGRLVKATHQQLADELGSVREMVSRLLKGFAEHDLVRMSREQIEIVDAAGLRKLAD,-1.33
23,HMEIFYGDDRVYTVSLHGQNNFPFRKKTSDFDYGFEDGTGDEEYLRVLDVTLSRLENEQFDLLFFQAGV,-0.203
24,HMSENDTILAKFASIINNKSLELVIFPDTAYLKGQVSTPEDKARAETVAQSLLGSKPLISLIEFE,-0.0145
25,HMLISKNLLGFTIKNTSGVTFGTLKDIMWLPSNDVYVIDNNGKEYLIPVISEIVKSINYDKGSITIFP,-0.352
26,HMAFYQDIAVDLRKQIIDGVYPKNSRLPNQAELAKLYTTSRVTIQKALKILQIEGLIEGRQGSGSYVKGP,-1.42

row,Sequence,soluble fraction (log2)
1,HMEFSYLEEIGHEKGDLIKGLQLIQQKEGYVSDDAVRAVAENFGMSPAEVEGVLTFYAQFKR,-0.061
2,HMVPVQLTPRELQVARLAAHGASSPEIAAELRVSRRTVDNQLGRVYAKLGIAGRAELAAALSRLPVSV,-0.0808
3,HMLDLPVKTINGKQYYYYTVKKGDTVYSLITRFGITRSDLVESNPAAADVLKTGDTLYFAVDKFG,-0.0825
4,HMSYTAYLSQELGDMSREIQSELLKKGYNGSSSFTIVRTYMGSSVKFSVYNANNGELITSKTINM,-1.93
5,HMSNSWSYSEFMKAVESGQVESVTISGQSIKGTSRGGQAFESVLPAFDDKLMDTLLVNDVEVIGEKP,-0.00195
6,HMSPDALSNLPIGSEIKFTLWDGTEKRLVKHPAAYQFSRPFWMNLNEYTYVPVNRIPKNYEVIRL,-0.0581
7,HMATYDIDALKVDLPSAKELAQFVYDKTDGLVSLDLIGKPKEEQYIVAKNALEGKKVPAEYLTGFNPY,0.202
8,HMEVPQVETEKVEAKLKEAEVLLVKVTDSSLKANATETLAGLRNNLTLQTMDNNGIMAEAEKLLALLRES,0.0393
9,HMAIEGIFEKYQRRSDQLIPILQDVQKEFGYIAPESVRHISRYLRISENQIFGVSSFYAQFRFT,-0.292
10,HMEQMSLISKKKGERIDKFLGENLGDLSRSYIQKLLKDGLILVNGKKVKANYKLNEGDQIDVEVPDP,0.303
11,HMAKRYFVTTGVRVRTKPDTANSEVLTVLDEGSEIDYKGDYNNEWVKINYNGQEAYIAKQYVRSEE,-0.377
12,HMVLSTRERMSNILATLKGGHFVNFSDLFTPEEGRLGVVVTFLAMLELIKESLLDIVQHEVLGPIHVKARV,-0.0744
13,HMDESIPVITYKDSVYANPKAFADAHKLPYKSLHNALSKARKEGKVRFMYKQYNFHLDNNGYIVAVS,0.166
14,HMGIMNFDTWLKSLPGTPTPTIAAKKSGLAAPTLLRHVERGYSTADNVIAIAKAYGVSPIDALVDNGML,-0.695
15,HMQSRRTPASLVERVRQLNGQYQDKEIAELLNREGIKTAHGNEFNAKRIEMIRRHNGISKHSAQ,0.174
16,HMADVLLKHGSSGDYVWDLQYRLKTLSLFDQEMTGYFGPHTRQAVVNFQRKYGLPADGVVGPATWRALRK,-2.27
17,HMDKMIFFKNKENNDDNQLVKIGALLIHAAKIDEDFSQEEENIIKQTLINFGAGNKNINEIIEKAKKME,0.389
18,HMHGSTAVVPQIKNMPYSEASVRLGANGLAIEINDSVYDRDMPPGTVIESWPKAGAVVKQGRQVYVTVTA,-0.221
19,HMSNEDAYIKLRNGFLATLSEADLLLFTLREEGKTQKEIADQLGYKTHSAVSKRLQTMRGQFEGYLKTQ,-0.68
20,HMTLQEFYARVGGDYNATLSRLPSEALVKKFILKYPGDPSFAQLKDALAAQDWELAFRASHTLKGVAQN,-1.3
21,HMTEAIDVPNLVGQNYSDVKSNSSYKFNWDIINVYDSGKPEGEIIKQEPEAGSKKVKENAVITLTVN,0.278
22,HMIKVASVDGASDELAHEIREIMPLDFPVSYFDLDIKYLHKVLNDIPAVESAAIKVTVSGVLQIDISER,0.43
23,HMTENLELLATGSLWTEPDGSGKIISYLIPGLRVKKLETNGIFYKIQLQNGLIGWADQSLFTIAEPK,-0.0642
24,HMGTLRPKGTVVFANLPIAADAKEGDMYNISDQFTTTASFKEGAGNVIPAGSNVYRTDDGFWDVL,0.00637
25,HMSEQYEQIQLALKTLTQDEQDIVRLVVVEGASLRTAGKNLGVSAMTIQRRLKRALARLRDLLAS,-0.948
26,HMDFTMSEIQTAMAALPRGYRTVVQLYLVDGYSHKEIAEMLGVDVNTSKSQLSRGRKQLQAFLAAMS,-0.674

row,Sequence,soluble fraction (log2)
1,HMPASGISSEIIYDGILIEENLRQLKKDKAWLMDQLKKKGISSVSEVFLATLNKGGSLYIDKY,-0.0117
2,HMDDVIDVYATYDKSAEGVLSNIQLFSNQKKTTPITPESGKIYIDVEGNYQFRWTGTQYATV,-0.111
3,HMLKASEVLPYVFTDKFFIDDLNLKQDQILGFLEYIDSKLPSQKLLQVSQQFQLIDFLINESKNYKNQ,-0.382
4,HMDRERFIKLGREIARAAFENVGKKATDKVLNSAAKKLRLEDGDEVLARLGSAEIEARSVVQAVYPDLI,0.452
5,HMLLSFYGTYGNVKLTGKELEDLQKEFPFDYQARIDRLSAYMESSGRKYHSHFATIRSWAQDDAKKN,-1.79
6,HMKFGETLIDLRKRNGLTQEELAAKLYVTRQAVSRWERGEVTPGIDMLKLIANVLNEPVAHLLDW,-0.977
7,HMATETELNLQLMRIIDELHTDHNTWGSRKITDYLRLQGYEINRKRIQRLMDVMDIQVVYPK,-1.98
8,HMNATQLSNTQKQIRTQLLERLSNNPLTVKQLADRMFVPIDTILKEITALIQEQKIIEDKGGKLQIN,0.0217
9,HMGADRLVGMTAIVTATIDPNDTDRKGRVQVEGEVWSALSDGRLIITEGSKVRITEMHGTRVRVEAI,-0.0351
10,HMDINNTNFSRDVDNLLQNEEFIKWRIFRTKEWEDYWENFRKENPHMEDALQEAISRFNAVK,0.156
11,HMEDQVITQFNMRLIRAVMPQGAPMIVVYEDPKDYPGLFVARLFDGRKSTHLIALADTLEDI,-0.123
12,HMTQMSVLFSELEAKDAATIADKLRERNIPYELSNNGSTILIPQEVLHDTRLSLASEGLPES,-0.0936
13,HMPPTEQVYRSHVPPQYDGFPIEKYFTTRFSYQDVEEWSRQILAGKIEVNGKTALIGQILSASDLTVTRA,-0.855
14,HMLNEIMDTINKYISDKRNNKVAQNILSAALDELNSQIRVGLKDLNPHSIEEFKENVINSPYIEFEQG,0.046
15,HMAFEITSAERTRLEDIARKGLTAYTAEWKQLPASEKKALNKTGLQDFLKSMAADADSAREEEA,0.0772
16,HMIRDTTMYPVSVNGKKRYEWTVSKSISDDELKQQVLELEEIKKWIEGHEIKKLIFVPGRAINIV,-0.69
17,HMQNRIVNTTQGLAADKRGLLVADETGHTTRPGIFASGDVVNGARTVVEAVAHSKIVAESMHQYMQ,≥ 0.62
18,HMEEKKYEVGDVVSFNYLYKNSFAEGKVSSLIHSGTITRIIDGRPAPYLINRGTGWLSNDLILT,-0.958
19,HMGDKRPIAVGDYVKLEGQDTPGQVLSISGKNATVGFGMLKTTVKLDRLRHTMAKPQTGASAGVR,0.178
20,HMNPEDLSGVRKAAILLLTMDDEVTKDVMKGLDEEEIEAIGKEITNLKLIPDHVVHRVQEEFMTKVSK,0.0913
21,HMVEMPEVGVKVRIEVESHNGSTNFEGIVLHPASKGHLTLKLINGYNASYLIEEIRNLEIIDSS,-0.271
22,HMFSWRQHLDHFGFSDEIKKRLADAVFLNDDWNEIDRGVLTKEELLARFIENDPGIEKEIYMVMENIN,-0.509
23,HMPGDIRKAAILLMSLPREQAAQVLARLDPKQVEAVTIEIARLGTVTPDEQEQALKEFSQANPA,0.0798
24,HMSTPTVDTKTKLDLYNLLYKKDLNYLDAYNFVLDNFGSDNIDIMFKMLGLDFTNWVIENKPE,0.0375
